In PMC9853002, “Tumor treatment by pHLIP-targeted antigen delivery” (Frontiers in Bioengineering and Biotechnology, 2023):

Tests used:
[1] = pH-dependent interaction of HA-pHLIP agents with POPC liposomes (tryptophan fluorescence); assay type: physicochemical; details: 7 μM agent, 25°C; for cooperativity (n) of state II to state III transition / mid-point (pK) of state II to state III transition: pH-dependent insertion into POPC liposome bilayer, shift of fluorescence maximum vs pH, Henderson-Hasselbalch fit; for cooperativity (n) of state II to state III transition / mid-point (pK) of state II to state III transition / λmax in state III / λmax in state II: 1.4 mM POPC; for λmax in state I / λmax in state III / λmax in state II: position of tryptophan fluorescence maximum, excitation 295 nm; for λmax in state I: HA-pHLIP in solution at pH8; for λmax in state III: HA-pHLIP with POPC liposomes at pH3 (membrane-inserted); for λmax in state II: HA-pHLIP with POPC liposomes at pH8 (membrane-adsorbed)
[2] = tested on: murine mammary carcinoma 4T1 cells; assay: Treatment with HA-pHLIP agents in 4T1 tumor mouse model; assay type: in vivo; details: 4T1 flank tumors in BALB/c mice immunized with KLH-HA/CFA and KLH-HA/IFA; IP 40–60 µM 400 μl every second day from day 3 or 4; tumors weighed typically days 17–19; mean of control group = 100%
[3] = tested on: murine melanoma B16F10 cells; assay: Treatment with Gal-pHLIP in B16F10 tumor model in A3galt2 knockout mice; assay type: in vivo, mouse; details: B16F10 tumors in A3galt2 knockout mice immunized with HSA-Gal/CFA and HSA-Gal/IFA; IP 80 μM 450 μl each day for 10 days; tumors weighed day 12; versus untreated control; statistically significant
Method: A3galt2 knockout female and male mice were immunized by IP injection of Galα1-3Galβ-4Glc-HSA (HSA-Gal) (Dextra Laboratories) (day 1) (HSA is human serum albumin), at a concentration of 0.2 mg/ml emulsified at a ratio 1:1 with CFA. On days 14 and 21 after the first immunization, mice were boosted by IP injection of 200 μl of HSA-Gal (0.2 mg/ml) emulsified at a ratio 1:1 with IFA.
A3galt2 knockout female and male mice immunized with HSA-Gal and CFA/IFA adjuvants received a single SQ injection of 10^6 murine melanoma B16F10 cells (ATCC CRL-6475) in the right flank on day 1. On day 2, mice were randomized into groups and tri-Gal-pHLIP was administered via IP injections each day (80 μM 450 μl per injection). […] All mice in the control and treated groups were euthanized on day 12, tumors were collected and weighed.
The Kolmogorov-Smirnov two-tailed non-parametric test was used to compare two samples at a significance level of 0.05.

anti-HA antibodies = details: mouse, in vivo, ip
[4] = tested on: murine melanoma B16F10 cells; details: B16F10 flank tumors in BALB/c mice immunized with 2 injections of KLH-HA/AddaVax; IP 40 μM 400 μl on days 1, 2 and 3 from about 100 mm^3; tumors weighed day 7; mean of control group = 100%

Substance	cooperativity (n) of state II to state III transition [1]	mid-point (pK) of state II to state III transition [1]	λmax in state I [1] [nm]	λmax in state III [1] [nm]	λmax in state II [1] [nm]	Norm. tumor weight [2] [%]	reduction of tumor growth [3] [%]	amount of anti-HA antibody in serum after treatment (anti-HA antibodies)	Norm. tumor weight [4] [%]
(Az)GGKGGGK[HA-Peg12]PWRAYLELLFPTETLLLELLLA [HA-Peg12-pHLIP4, v2, single HA-Peg12 on second Lys of pHLIP4]	2.2	6.8	348	337	343				
(Az)GGK[HA-Peg12]GGGKPWRAYLELLFPTETLLLELLLA [HA-Peg12-pHLIP4, v1, single HA-Peg12 on first Lys of pHLIP4]	1.7	6.4	347	337	343				
(Az)GGK[HA-Peg12]GGGK[HA-Peg12]PWRAYLELLFPTETLLLELLLA [2(HA-Peg12)-pHLIP4]	1.3	5.8	347	337	344	55.3			
(Az)GGK[HA-Peg24]GGGK[HA-Peg24]PWRAYLELLFPTETLLLELLLA [2(HA-Peg24)-pHLIP4]	0.7	5.8	347	336	347				
AK[3xHA-Peg12]QNDDQNK[3xHA-Peg12]PWRAYLDLLFPTDTLLLDLLWA [2(3xHA-Peg12)-pHLIP3]	1.9	4.8	351	337	351	61.6			
AK[HA-Peg12]QNDDQNK[HA-Peg12]PWRAYLDLLFPTDTLLLDLLWA [2(HA-Peg12)-pHLIP3]	1.9	4.8	351	337	351	61.3			
AK[HA-Peg24]QNDDQNK[HA-Peg24]PWRAYLDLLFPTDTLLLDLLWA [2(HA-Peg24)-pHLIP3]	0.9	4.6	351	337	350	62.9			
Galα(1,3)Galβ(1,4)Glc-Peg4-NHC(O)-AADDQNPWRAYLDLLFPTDTLLLDLLWA-OH [Gal-pHLIP]							66		
K(N3)[HA-Peg12]GGGGGK(N3)[HA-Peg12]PWRAYLELLFPTETLLLELLLA [2(HA-Peg12)-pHLIP5]	0.9	6.2	347	340	346			dropped significantly (close to background level)	56.5
